Each block holds one binder with its values, some of them ahead of it.
Key:
[1] = target: T1, human PD-L1/B7-H1 protein, with His tag (human, UniProt Q9NZQ7 19-238); experiment: SPR (Biacore T200), antibody captured on Protein A chip, response at 200 nM antigen
T1 construct: Bought protein
Description: (§1) The anti-human B7-H3 antibodies were tested for their binding capability to B7 family proteins by SPR using Biacore T200 biosensor (Biacore, US) provided with a pre-fixed Protein A sensor chip.
(§2) The dissociation was monitored for 600 sec. The data was analyzed using Biacore 8k evaluation software version 3.0, to obtain the binding responses, and the protein concentration-binding response curves were plotted, to determine the cross-reaction of the anti-human B7-H3 antibodies to the B7 family proteins.

[2] = target: T2, human B7-H6/NCR3LG1 protein, with His tag (human, UniProt Q68D85 25-262, limits assumed); experiment: as above
T2 construct: Bought protein
T2 sequence (looked up): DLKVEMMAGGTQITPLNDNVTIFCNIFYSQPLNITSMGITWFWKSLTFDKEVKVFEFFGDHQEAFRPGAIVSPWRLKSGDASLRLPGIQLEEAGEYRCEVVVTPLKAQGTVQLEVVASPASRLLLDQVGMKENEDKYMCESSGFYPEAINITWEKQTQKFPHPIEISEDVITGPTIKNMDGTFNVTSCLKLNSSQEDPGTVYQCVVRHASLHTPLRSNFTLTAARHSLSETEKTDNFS
Description: as §1, §2

[3] = target: T3, human B7-H4 protein, with His tag (MALS verified) (human, UniProt Q7Z7D3 29-258, limits assumed); experiment: SPR (Biacore T200), antibody captured on Protein A chip
T3 construct: Bought protein
T3 sequence (looked up): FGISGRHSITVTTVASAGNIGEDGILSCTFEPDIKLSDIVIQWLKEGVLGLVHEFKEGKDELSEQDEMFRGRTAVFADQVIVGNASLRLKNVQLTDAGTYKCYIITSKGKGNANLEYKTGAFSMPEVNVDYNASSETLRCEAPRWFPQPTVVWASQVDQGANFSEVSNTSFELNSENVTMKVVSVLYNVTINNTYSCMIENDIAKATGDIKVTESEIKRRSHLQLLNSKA
Description: as §1, §2

[4] = target: T4, recombinant human B7-H3 (4Ig) protein, with His tag (human, UniProt Q5ZPR3 29-461, limits assumed); experiment: SPR (Biacore T200), antibody captured on Protein A chip, His-tagged antigen injected
T4 construct: Bought protein; also called human B7-H3 (4Ig)/B7-H3b protein
T4 sequence (looked up): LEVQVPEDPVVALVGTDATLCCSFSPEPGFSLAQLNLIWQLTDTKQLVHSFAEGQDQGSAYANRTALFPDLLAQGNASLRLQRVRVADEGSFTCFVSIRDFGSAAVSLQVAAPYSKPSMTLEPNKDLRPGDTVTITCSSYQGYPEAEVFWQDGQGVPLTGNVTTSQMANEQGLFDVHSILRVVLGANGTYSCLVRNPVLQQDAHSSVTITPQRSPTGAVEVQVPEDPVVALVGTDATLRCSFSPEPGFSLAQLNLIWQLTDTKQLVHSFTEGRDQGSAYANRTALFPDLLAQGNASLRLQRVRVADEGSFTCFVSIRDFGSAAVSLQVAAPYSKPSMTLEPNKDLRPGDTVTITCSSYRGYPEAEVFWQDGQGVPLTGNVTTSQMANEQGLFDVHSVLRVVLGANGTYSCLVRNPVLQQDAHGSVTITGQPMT
Description: (§3) The fully human anti-human B7-H3 antibodies were tested for their binding affinity to human B7-H3 (4Ig), human B7-H3 (2Ig), monkey B7-H3 (monkey B7-H3/CD276 protein, with His tag, Cat #: B73-C52Ha, ACROBiosystems) and mouse B7-H3 protein (mouse B7-H3/CD276 protein, with His tag, Cat #: B73-M52H4, ACROBiosystems) by surface plasmon resonance (SPR) using Biacore T200 biosensor (Biacore, US) provided with a pre-fixed Protein A sensor chip. Briefly, the anti-human B7-H3 antibodies (1 μg/mL) were injected to the Biacore T200 biosensor at 10 μL/min for 20 sec, to achieve the desired protein density (100±30 RU).
(§4) The data as generated was analyzed using Biacore Insight V2.0.1 5.12933 with the one-to-one Langmuir binding model. The association rate (kₒₙ) and dissociation rate (koff) were obtained at the same time. The affinity was calculated as the quotient of the two kinetic rate constants (KD=koff/kₒₙ).

[5] = target: T5, recombinant human B7-H3 (2Ig) protein, with His tag (human, UniProt Q5ZPR3-2 29-245, limits assumed); experiment: as above
T5 construct: Bought protein; also called human B7-H3/CD276 protein
T5 sequence (looked up): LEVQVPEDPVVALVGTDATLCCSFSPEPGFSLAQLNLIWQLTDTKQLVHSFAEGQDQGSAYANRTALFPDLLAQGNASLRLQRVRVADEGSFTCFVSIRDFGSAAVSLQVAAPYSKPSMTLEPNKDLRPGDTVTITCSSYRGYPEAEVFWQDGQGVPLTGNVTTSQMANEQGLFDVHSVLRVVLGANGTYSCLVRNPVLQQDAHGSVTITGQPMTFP
Description: as §3, §4

[6] = target: T6, mouse B7-H3/CD276 protein, with His tag (mouse, UniProt Q8VE98 29-244, limits assumed); experiment: SPR (Biacore T200), antibody captured on Protein A chip
T6 construct: Bought protein
T6 sequence (looked up): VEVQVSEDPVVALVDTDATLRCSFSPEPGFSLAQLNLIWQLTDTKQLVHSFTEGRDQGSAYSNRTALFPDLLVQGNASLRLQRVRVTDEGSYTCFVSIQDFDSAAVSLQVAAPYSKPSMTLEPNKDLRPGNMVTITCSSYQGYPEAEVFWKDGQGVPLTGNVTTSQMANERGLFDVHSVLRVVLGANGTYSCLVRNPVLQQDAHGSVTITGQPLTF
Description: as §3, §4

[7] = target: T7, monkey B7-H3/CD276 protein, with His tag (monkey); experiment: SPR (Biacore T200), antibody captured on Protein A chip, His-tagged antigen injected
T7 construct: Bought protein
Description: as §3, §4

T1 sequence (Q9NZQ7 19-238 limits assumed): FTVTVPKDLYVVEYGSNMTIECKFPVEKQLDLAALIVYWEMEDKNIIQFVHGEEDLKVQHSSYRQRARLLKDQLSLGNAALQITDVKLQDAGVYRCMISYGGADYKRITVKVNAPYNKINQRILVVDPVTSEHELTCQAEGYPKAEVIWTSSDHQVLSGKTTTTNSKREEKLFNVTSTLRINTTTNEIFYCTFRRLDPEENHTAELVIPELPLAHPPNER

B2: 10D7 (antibody, human IgG1, kappa, V domains shown)
VH: QVQLVQSGPGLVKPSETLSLTCTVSGGSISRSSYYWGWIRQPPGKGLEWIGNIFYAGSTYYNPSLKSRVTISVDTSKNQFSLKLSSVTAADTAVYYCARRITGTTGWFDPWGQGTLVTVSS
VL: DIQLTQSPSSLSASVGDRVTITCRASQGIRNDLGWYQQKPGKAPKLLIYAASTLQSGVPSRFSGSGSGTDFTLTISSLQPEDFATYYCLQDYNYPRTFGQGTKVEIKR
notes: also called 10D7-WT; Ab10D7
Response (RU) [1]: 0.3 RU
Response (RU) [2]: -0.5 RU
binding result [3]: no binding (tested: 200 nM)
binding result [6]: no binding (tested: 200 nM highest antigen concentration)
Kd [7]: 49.5 nM
koff [7]: 0.0167 s⁻¹
kon [7]: 337000 M⁻¹ s⁻¹
Kd [4]: 1.11 nM
koff [4]: 0.000291 s⁻¹
kon [4]: 263000 M⁻¹ s⁻¹
Kd [5]: 386 nM
koff [5]: 0.0588 s⁻¹
kon [5]: 152000 M⁻¹ s⁻¹

B3: 6B5 (antibody, human IgG1, kappa, V domains shown)
VH: QVQLVESGPGLVKPSQTLSLTCTVSDGSISSGGYYWSWIRQHPGKGLEWIGYIYYSGGTYYSPSLKSRVTISVDTSKNQFSLKLTSVTAADTAVYYCARRAGYSSSFDSWGQGILVTVSS
VL: EIVLTQSPLSLPVTPGEPASISCRSSQSLLYSNGYTYLDWYLQKPGQSPQFLIYLGFNRASGVPDRFSGSGSGTDFTLKISRVEAEDVGVYYCMQGLQTPYTFGQGTKLEIKR
notes: also called 6B5-WT; Ab6B5
Response (RU) [1]: 1 RU
Response (RU) [2]: -0.2 RU
Kd [7]: 1.14 nM
koff [7]: 0.000295 s⁻¹
kon [7]: 258000 M⁻¹ s⁻¹
Kd [4]: 1.26 nM
koff [4]: 0.00031 s⁻¹
kon [4]: 247000 M⁻¹ s⁻¹
Kd [5]: 51.5 nM
koff [5]: 0.00653 s⁻¹
kon [5]: 127000 M⁻¹ s⁻¹

Now from value to binder, other results behind:

Response (RU) [1]: 0.5 RU
Response (RU) [2]: -0.4 RU
binding result [3]: no binding (tested: 200 nM)
Kd [4]: 1.01 nM
koff [4]: 0.00011 s⁻¹
kon [4]: 109000 M⁻¹ s⁻¹
Kd [5]: 10.4 nM
koff [5]: 0.000422 s⁻¹
kon [5]: 40500 M⁻¹ s⁻¹
B1: 10F5 (antibody, human IgG1, kappa, V domains shown)
VH: QVQLVQSGAEVKKPGSSVKVSCKASGGTFSSQAISWVRQAPGQGLEWMGRIIPMLGIGDYAQSFQGRVTITADKSTSTAYLEVSSLGSEDTAVYYCAREGIAALGTNYYYGMDVWGQGTAVTVSS
VL: EIVMTQSPSSVSASVGDRVTITCRASQGISRWLAWYQQKPGKAPKLLIYVASSLQSGVPSRFSGSGSGTDFTLTISSLQPEDFATYYCQQANSFPFTFGPGTKVDIRR
notes: also called Ab10F5

Response (RU) [1]: -2.2 RU
Response (RU) [2]: -2.2 RU
Kd [7]: 0.966 nM
koff [7]: 0.000223 s⁻¹
kon [7]: 231000 M⁻¹ s⁻¹
Kd [4]: 1.11 nM
koff [4]: 0.000239 s⁻¹
kon [4]: 216000 M⁻¹ s⁻¹
Kd [5]: 275 nM
koff [5]: 0.0203 s⁻¹
kon [5]: 73700 M⁻¹ s⁻¹
B4: Enoblituzumab (antibody, human IgG1, kappa, V domains shown)
VH: EVQLVESGGGLVQPGGSLRLSCAASGFTFSSFGMHWVRQAPGKGLEWVAYISSDSSAIYYADTVKGRFTISRDNAKNSLYLQMNSLRDEDTAVYYCGRGRENIYYGSRLDYWGQGTTVTVSS
VL: DIQLTQSPSFLSASVGDRVTITCKASQNVDTNVAWYQQKPGKAPKALIYSASYRYSGVPSRFSGSGSGTDFTLTISSLQPEDFATYYCQQYNNYPFTFGQGTKLEIKR
notes: Humanized anti-B7-H3 antibody of MacroGenics with optimised Fc, used as the positive control; also called AbEno; enoblituzumab-IgG1-Mut
binding result [6]: no binding (tested: 200 nM highest antigen concentration)

Source: patent US20260125477A1 (BEIJING MABWORKS BIOTECH, published 2026)
